Measurements as given in patent US20240043508A1 (KOOKMIN UNIVERSITY INDUSTRY ACADEMY COOPERATION FOUNDATION, published 2024).

How the values were obtained:
[1] = target: T1, SARS-CoV-2 S protein of B.1.1.7 (alpha) variant, on pseudotyped MLV particles (SARS-CoV-2, UniProt P0DTC2 14-1273); test: cell-based or functional assay
[2] = target: T2, SARS-CoV-2 S protein of B.1.617.2 (delta) variant, on pseudotyped MLV particles (SARS-CoV-2, UniProt P0DTC2 14-1273); test: cell-based or functional assay
[3] = target: T3, SARS-CoV-2 S protein of B.1.617 (kappa) variant, on pseudotyped MLV particles (SARS-CoV-2, UniProt P0DTC2 14-1273); test: cell-based or functional assay
[4] = target: T1, SARS-CoV-2 S protein of B.1.1.7 (alpha) …; test: cell-based or functional assay; remark: listed apart in the source
[5] = target: T2, SARS-CoV-2 S protein of B.1.617.2 …; test: cell-based or functional assay; remark: listed apart in the source
[6] = target: SARS-CoV-2 RBD protein (Fc-tagged) (SARS-CoV-2, UniProt P0DTC2 319-541)
[7] = target: T4, SARS-CoV-2 RBD, Alpha (B.1.1.7) variant (SARS-CoV-2, UniProt P0DTC2 319-541); test: SPR, RBD immobilised
T4 construct: domain: RBD

[8] = target: T5, SARS-CoV-2 RBD, Beta (B.1.351) variant (SARS-CoV-2, UniProt P0DTC2 319-541); test: SPR, RBD immobilised
T5 construct: domain: RBD

[9] = target: T6, SARS-CoV-2 RBD, Gamma (P.1) variant (SARS-CoV-2, UniProt P0DTC2 319-541); test: SPR, RBD immobilised
T6 construct: domain: RBD

[10] = target: T7, SARS-CoV-2 RBD, Delta (B.1.617.2) variant (SARS-CoV-2, UniProt P0DTC2 319-541); test: SPR, RBD immobilised
T7 construct: domain: RBD

[11] = target: T8, SARS-CoV-2 RBD, Kappa (B.1.617.1) variant (SARS-CoV-2, UniProt P0DTC2 319-541); test: SPR, RBD immobilised
T8 construct: domain: RBD

[12] = target: T4, SARS-CoV-2 RBD, Alpha (B.1.1.7) variant; test: SPR, RBD immobilised, 1:1 model
[13] = target: T5, SARS-CoV-2 RBD, Beta (B.1.351) variant; test: SPR, RBD immobilised, 1:1 model
[14] = target: T6, SARS-CoV-2 RBD, Gamma (P.1) variant; test: SPR, RBD immobilised, 1:1 model
[15] = target: T7, SARS-CoV-2 RBD, Delta (B.1.617.2) …; test: SPR, RBD immobilised, 1:1 model
[16] = target: T8, SARS-CoV-2 RBD, Kappa (B.1.617.1) …; test: SPR, RBD immobilised, 1:1 model
[17] = target: T5, SARS-CoV-2 RBD, Beta (B.1.351) variant; test: competition ELISA: RBD-His with antibody, binding to coated hACE2-Fc
[18] = target: T6, SARS-CoV-2 RBD, Gamma (P.1) variant; test: as above
[19] = target: T7, SARS-CoV-2 RBD, Delta (B.1.617.2) …; test: as above
[20] = target: T8, SARS-CoV-2 RBD, Kappa (B.1.617.1) …; test: as above
[21] = target: SARS-CoV-2 S protein of the wild-type, on pseudotyped lentiviral particles (SARS-CoV-2); test: cell-based or functional assay
[22] = target: SARS-CoV-2 S protein of beta variant, on pseudotyped MLV particles (SARS-CoV-2, UniProt P0DTC2 14-1273); test: cell-based or functional assay
[23] = target: SARS-CoV-2 S protein of gamma variant, on pseudotyped MLV particles (SARS-CoV-2, UniProt P0DTC2 14-1273); test: cell-based or functional assay
[24] = target: T3, SARS-CoV-2 S protein of B.1.617 (kappa) …; test: cell-based or functional assay; remark: listed apart in the source

B1: RD3 (antibody, V domains shown)
VH: EVQLLESGGGLVQPGGSLRLSCAASGFTFSDYAMSWVRQAPGKGLEWVSWIYSGSGNKYYADSVKGRFTISRDNSKNTLYLQMNSLRAEDTAVYYCARFPIARTSNSQSSYDGMDVWGQGTLVTVSS
VL: QSVLTQPPSASGTPGQRVTISCSGSSSNIGSNAVSWYQQLPGTAPKLLIYADNKRPSGVPDRFSGSKSGTSASLAISGLRSEDEADYYCGAWDSSLNAYVFGGGTKLTVL
notes: also called K102.1
[1]
  IC50 (nM), pseudovirus neutralization, luciferase in 293T/hACE2 cells: 6.16 nM
[2]
  IC50 (nM), pseudovirus neutralization, luciferase in 293T/hACE2 cells: 4.48 nM
[3]
  IC50 (nM), pseudovirus neutralization, luciferase in 293T/hACE2 cells: 94.8 nM
[4]
  IC50 (nM), pseudotyped virus infection: 6.16 nM
[5]
  IC50 (nM), pseudotyped virus infection: 4.48 nM

B2: RG6 (antibody, V domains shown)
VH: EVQLLESGGGLVQPGGSLRLSCAASGFTFSDYSMSWVRQAPGKGLEWVSGIYHSDGSKYYADSVKGRFTISRDNSKNTLYLQMNSLRAEDTAVYYCARFDPVFDYWGQGTLVTVSS
VL: QSVLTQPPSASGTPGQRVTISCTGSSSNIGSNAVNWYQQLPGTAPKLLIYADSNRPSGVPDRFSGSKSGTSASLAISGLRSEDEADYYCGAWDASLSAYVFGGGTKLTVL
[6]
  IC50: 84 nM

B3: RB6 (antibody, V domains shown)
VH: EVQLLESGGGLVQPGGSLRLSCAASGFTFSSYDMSWVRQAPGKGLEWVSGISYSGGSTYYADSVKGRFTISRDNSKNTLYLQMNSLRAEDTAVYYCARDVNFVPLVTFDYWGQGTLVTVSS
VL: QSVLTQPPSASGTPGQRVTLSCTGSSSNIGSNSVTWYQQLPGTAPKLLIYDDNQRPSGVPDRFSGSKSGTSASLAISGLRSEDEADYYCGTWDYSLSAYVFGGGTKLTVL
notes: also called K102.2
[7]
  Kd: 3.62 nM
  kon: 154000 M⁻¹ s⁻¹
[8]
  Kd: 1.6 nM
  kon: 492000 M⁻¹ s⁻¹
[9]
  Kd: 2.07 nM
  kon: 454000 M⁻¹ s⁻¹
[10]
  Kd: 1.53 nM
  kon: 333000 M⁻¹ s⁻¹
[11]
  Kd: 1.68 nM
  kon: 407000 M⁻¹ s⁻¹
[12]
  Kd: 3.62 nM
  kon: 154000 M⁻¹ s⁻¹
[13]
  Kd: 1.6 nM
  kon: 492000 M⁻¹ s⁻¹
[14]
  Kd: 2.07 nM
  kon: 454000 M⁻¹ s⁻¹
[15]
  Kd: 1.53 nM
  kon: 333000 M⁻¹ s⁻¹
[16]
  Kd: 1.68 nM
  kon: 407000 M⁻¹ s⁻¹
[17]
  IC50: 0.86 nM
[18]
  IC50: 3.23 nM
[19]
  IC50: 1.14 nM
[20]
  IC50: 0.4 nM

B4: K202.A (bispecific antibody)
heavy: EVQLLESGGGLVQPGGSLRLSCAASGFTFSDYAMSWVRQAPGKGLEWVSWIYSGSGNKYYADSVKGRFTISRDNSKNTLYLQMNSLRAEDTAVYYCARFPIARTSNSQSSYDGMDVWGQGTLVTVSSASTKGPSVFPLAPCSRSTSESTAALGCLVKDYFPEPVTVSWNSGALTSGVHTFPAVLQSSGLYSLSSVVTVPSSSLGTKTYTCNVDHKPSNTKVDKRVESKYGPPCPPCPPCPAPEFLGGPSVFLFPPKPKDTLMISRTPEVTCVVVDVSQEDPEVQFNWYVDGVEVHNAKTKPREEQFNSTYRVVSVLTVLHQDWLNGKEYKCKVSNKGLPSSIEKGQPREPQVYTLPPSQEEMTKNQVSLTCLVKGFYPSDIAVEWESNGQPENNYKTTPPVLDSDGSFFLYSRLTVDKSRWQEGNVFSCSVMHEALHNHYTQKSLSLSLGK
light: QSVLTQPPSASGTPGQRVTISCSGSSSNIGSNAVSWYQQLPGTAPKLLIYADNKRPSGVPDRFSGSKSGTSASLAISGLRSEDEADYYCGAWDSSLNAYVFGGGTKLTVLVAAPSVFIFPPSDEQLKSGTASVVCLLNNFYPREAKVQWKVDNALQSGNSQESVTEQDSKDSTYSLSSTLTLSKADYEKHKVYACEVTHQGLSSPVTKSFNRGEC
scFv: EVQLLESGGGLVQPGGSLRLSCAASGFTFSSYDMSWVRQAPGKGLEWVSGISYSGGSTYYADSVKGRFTISRDNSKNTLYLQMNSLRAEDTAVYYCARDVNFVPLVTFDYWGQGTLVTVSSGGGGSGGGGSGGGGSQSVLTQPPSASGTPGQRVTLSCTGSSSNIGSNSVTWYQQLPGTAPKLLIYDDNQRPSGVPDRFSGSKSGTSASLAISGLRSEDEADYYCGTWDYSLSAYVFGGGTKLTVL
[21]
  IC50 (nM), pseudotyped virus infection: 0.27 nM
[4]
  IC50 (nM), pseudotyped virus infection: 0.18 nM
[22]
  IC50 (nM), pseudotyped virus infection: 0.46 nM
[23]
  IC50 (nM), pseudotyped virus infection: 1.74 nM
[5]
  IC50 (nM), pseudotyped virus infection: 1.83 nM
[24]
  IC50 (nM), pseudotyped virus infection: 0.24 nM

B5: K202.B (bispecific antibody)
heavy: EVQLLESGGGLVQPGGSLRLSCAASGFTFSDYAMSWVRQAPGKGLEWVSWIYSGSGNKYYADSVKGRFTISRDNSKNTLYLQMNSLRAEDTAVYYCARFPIARTSNSQSSYDGMDVWGQGTLVTVSSASTKGPSVFPLAPCSRSTSESTAALGCLVKDYFPEPVTVSWNSGALTSGVHTFPAVLQSSGLYSLSSVVTVPSSSLGTKTYTCNVDHKPSNTKVDKRVESKYGPPCPPCPPCPAPEFLGGPSVFLFPPKPKDTLMISRTPEVTCVVVDVSQEDPEVQFNWYVDGVEVHNAKTKPREEQFNSTYRVVSVLTVLHQDWLNGKEYKCKVSNKGLPSSIEKGQPREPQVYTLPPSQEEMTKNQVSLTCLVKGFYPSDIAVEWESNGQPENNYKTTPPVLDSDGSFFLYSRLTVDKSRWQEGNVFSCSVMHEALHNHYTQKSLSLSLGK
light: QSVLTQPPSASGTPGQRVTISCSGSSSNIGSNAVSWYQQLPGTAPKLLIYADNKRPSGVPDRFSGSKSGTSASLAISGLRSEDEADYYCGAWDSSLNAYVFGGGTKLTVLVAAPSVFIFPPSDEQLKSGTASVVCLLNNFYPREAKVQWKVDNALQSGNSQESVTEQDSKDSTYSLSSTLTLSKADYEKHKVYACEVTHQGLSSPVTKSFNRGEC
scFv: EVQLLESGGGLVQPGGSLRLSCAASGFTFSSYDMSWVRQAPGKGLEWVSGISYSGGSTYYADSVKGRFTISRDNSKNTLYLQMNSLRAEDTAVYYCARDVNFVPLVTFDYWGQGTLVTVSSGGGGSGGGGSGGGGSQSVLTQPPSASGTPGQRVTLSCTGSSSNIGSNSVTWYQQLPGTAPKLLIYDDNQRPSGVPDRFSGSKSGTSASLAISGLRSEDEADYYCGTWDYSLSAYVFGGGTKLTVL
[21]
  IC50 (nM), pseudotyped virus infection: 0.16 nM
[4]
  IC50 (nM), pseudotyped virus infection: 0.15 nM
[22]
  IC50 (nM), pseudotyped virus infection: 0.1 nM
[23]
  IC50 (nM), pseudotyped virus infection: 1.04 nM
[5]
  IC50 (nM), pseudotyped virus infection: 0.13 nM
[24]
  IC50 (nM), pseudotyped virus infection: 0.05 nM
